{
  "source": "the nanobody polyreactivity screen of Harvey et al. (2022)",
  "data": [
    {"assay": "yeast display, Sf9 membrane polyspecificity reagent, FACS + sequencing; frameworks hold sequencing errors", "outline": "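In a synthetic yeast display library (Saccharomyces cerevisiae BJ5465), nanobody expression was induced with galactose for 36–48 hours. FACS gates were set low and high (top ~1%) using anti-HA fluorescence for expression and streptavidin fluorescence for binding of the Sf9 membrane reagent. Each polyreactivity label is drawn from the gate of origin.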", "values": [
      {"sequence": "QVQLVESGGGLVQAGGSLRLSCAASGGIFAYNAMGWYRQAPGKERELVATISSGVSTNYADSVKGRFTISRDNAKNTVYLPMNSLKPEDTAVYDCAAAIFITGYGSYGYWGQGTQVTVSS", "polyreactivity (PSR sort gate)": "low polyreactivity"},
      {"sequence": "QVQLVESGGGLVQAGGSLRLSCAASGGIFAYYGMGWYRQAPGKERELVAAIWIGGNTYYADSVKGRFTISRDNAKNTVYLQMNSLKPEDTAVYDCAAAGSAYYSTRKWDSYYYWGQGTQVTVSS", "polyreactivity (PSR sort gate)": "low polyreactivity"},
      {"sequence": "QVQLVESGGGLVQAGGSLRLSCAASGGIFAYYTMGLYTQDHGKERELVAAISTSSVNTYYADSVKGRFTISRDNAKHTVYLQMNSLKQEVNAVYYCAAEVYYGYDYCGQGTQVTVSS", "polyreactivity (PSR sort gate)": "low polyreactivity"},
      {"sequence": "QVQLVESGGGLVQAGGSLRLSCAASGGIFDNYAMGWYRQAPGKEREFVAVISSGGTTNYADSVKGRFTISRVNAKNTVYLQMNSLKPEDTAVYYCAADYDYRQGYDSVHLDYWGQGTQVTVSS", "polyreactivity (PSR sort gate)": "low polyreactivity"},
      {"sequence": "QVQLVESGGGLVQAGGSLRLSCAASGGIFDRYAMGWYRPAPGKERELVAGITWSGGRTYYADSVKGRFTISRDNAKNTVYLQMNSLKPEDTAVYYCAASLYTWTYQPVYYRDGYWGQGTQVTVSS", "polyreactivity (PSR sort gate)": "low polyreactivity"},
      {"sequence": "QVQLVESGGGLVQAGGSLRLSCAASGGIFDRYAMGWYRQAPGKERELVAAITSGGSTNYADSVKGRFTISRDNAKNTVYLQMNSLKPEDNAVYYCAAVESSYEAWYTYYYWGQGTQVTVSS", "polyreactivity (PSR sort gate)": "low polyreactivity"},
      {"sequence": "QVQLVESGGGLVQAGGSLRLSCAASGGIFESYAMGWYRQAPGKERELVASISSGGSTYYADSVKGRFTISRDNAKNTVYLQMNSLKPEDTAVYYCEYYYWGQGTQVTVSS", "polyreactivity (PSR sort gate)": "low polyreactivity"},
      {"sequence": "QVQLVESGGGLVQAGGSLRLSCAASGGIFFYNAMGWYRQAPGKERELVAAISTGGGRTYYADSVKGRFTISRDNAKNTVYLQMNSLKPEDTAVYYCAKDKQDYEYWGQGTQVTVSS", "polyreactivity (PSR sort gate)": "low polyreactivity"},
      {"sequence": "QVQLVESGGGLVQAGGSLRLSCAASGGIFGFNAMGWYRQAPGKERELVADISDGVRTNYADSVKGRFTISRDNAKNTVFLQMNSLKPEDTAVYYCATDGLFYVDGSWTLGYWGQGTQVTVSS", "polyreactivity (PSR sort gate)": "low polyreactivity"},
      {"sequence": "QVQLVESGGGLVQAGGSLRLSCAASGGIFGHNAMGWYRQAPGKERELVAAISYTGGSTYYADSVKGRFTISRDNAKNTVYLQMNSLKPEDTAVYYCNAVQRRFRYPFDYWGQGTQVTVSS", "polyreactivity (PSR sort gate)": "low polyreactivity"},
      {"sequence": "QVQLVESGGGLVQAGGSLRLSCAASGGIFGSYAMGWYRQAPGKERELVAAISWTGGSTYYADSVKGRFTISRDTAKNTVYLQMNSLKREDTAVYYCNADTYRRAQLRFNSWGQGTQVTVSS", "polyreactivity (PSR sort gate)": "low polyreactivity"},
      {"sequence": "QVQLVESGGGLVQAGGSLRLSCAASGGIFGTNDMGWYRQAPGKERELVAAITSDSGSTYYADSVKGRFTISRDNAKNTVYLQMNSLKPEDTAVYYCAAEDGPWFYRYGYWGQGTQVTVSS", "polyreactivity (PSR sort gate)": "low polyreactivity"},
      {"sequence": "QVQLVESGGGLVQAGGSLRLSCAASGGIFGYYAMGWYRQAPGKERELVAAITLSGGRTYYADSVKGRFTISRDNAKNTVYLQMNSLKPEDTAVYYCAAKGTRRGKERNYWGQGTQVTVSS", "polyreactivity (PSR sort gate)": "high polyreactivity"},
      {"sequence": "QVQLVESGGGLVQAGGSLRLSCAASGGIFGYYVMGWYRQAPGKERELVAAITSGGGTNYADSVKGRFTISRDNAKNTVYLQMNSLKPEDTAVYYCAAVYVRHRFGRFGYWGQGTQVTVSS", "polyreactivity (PSR sort gate)": "low polyreactivity"},
      {"sequence": "QVQLVESGGGLVQAGGSLRLSCAASGGIFIGYAMGWYRQAPGKERELVAAISYSGGSTYYADSVKGRFTISRDNAKNTVYFQMNSLKPEDTALYYCAAQVERKYRWFNSWGQGTQVTVSS", "polyreactivity (PSR sort gate)": "high polyreactivity"},
      {"sequence": "QVQLVESGGGLVQAGGSLRLSCAASGGIFKSYAMGWYRQAPGKERELVAAISASGGRTYYADSVKGRFTISRDNAKNTVYLQMNSLKPEDTAVYYCAAKVGYTTALNYWGQGTQVTVSS", "polyreactivity (PSR sort gate)": "high polyreactivity"},
      {"sequence": "QVQLVESGGGLVQAGGSLRLSCAASGGIFKYNAMGWYRQSPGKERELVAAIDTSGGSTYYADSVKGRFTISRDNAKNTVYLQMNSLKPEDTAVYYCAAELGLAQYYYWGQGTQVTVSS", "polyreactivity (PSR sort gate)": "low polyreactivity"},
      {"sequence": "QVQLVESGGGLVQAGGSLRLSCAASGGIFLVNDMGWYRQAPGKERELVAAITSGGGTYYADSVKGRFTISRDNAKNTVYLQMNSLKPEDTAVYYCARDTYRQIVSNESYGYWGQGTQVTVSS", "polyreactivity (PSR sort gate)": "low polyreactivity"},
      {"sequence": "QVQLVESGGGLVQAGGSLRLSCAASGGIFNSNAMGWYRQAPGKEREFVAAITRSGTSTYYADSVKGRFTISRDNAKNSVYLQMNSLKPEDTAVYYWAADYRYRRYRGHVSNLYYWGQGTQVTVSS", "polyreactivity (PSR sort gate)": "low polyreactivity"},
      {"sequence": "QVQLVESGGGLVQAGGSLRLSCAASGGIFNTYAMGWYRQAPGKEREFVAAISRRGGGTYYADSVKGRFTISRDNAKNTVYLQMNSLKPEDTAVYYCNADDKRGSRGYGSDHWGQGTQVTVSS", "polyreactivity (PSR sort gate)": "high polyreactivity"},
      {"sequence": "QVQLVESGGGLVQAGGSLRLSCAASGGIFPGNAMGWYRQAPGKERELVATISYSGGSTYYADSVKGRFTISRDYAKNTVYLQMNSLKPEDTAVYYCAARGYKPTRSRRTEYGYWGQGTQVTVSS", "polyreactivity (PSR sort gate)": "high polyreactivity"},
      {"sequence": "QVQLVESGGGLVQAGGSLRLSCAASGGIFPLYTMGWYRQATGKERELVASNTGSRASTYYADSVKGRFTISRDKAKNTVYLPMNSLNPEDTGVYDCKADVYVYSVTSHYPSYRLDYWGQGTQVTVAS", "polyreactivity (PSR sort gate)": "high polyreactivity"},
      {"sequence": "QVQLVESGGGLVQAGGSLRLSCAASGGIFPVNAMGWYRQAPGKERELVAAITWRGGRTYYADSVKGRFTISRDNSKNTVYLQMNSLKPEDTAVYYCAAYKGSSKYDYWGQGTQVTVSS", "polyreactivity (PSR sort gate)": "high polyreactivity"},
      {"sequence": "QVQLVESGGGLVQAGGSLRLSCAASGGIFPYYAMGWYRQAPGKERELVADISSGGSTYYADSVKGRFTISRDNAKNTVYFQMNSLKPEDTAVYYCAADAGQYFTYSGDDNHDYWGQGTQVTVSS", "polyreactivity (PSR sort gate)": "low polyreactivity"},
      {"sequence": "QVQLVESGGGLVQAGGSLRLSCAASGGIFPYYVMGWYRQAPGNEMELVAAINSGGTTYYADSVKGRFTISRDNAKNTVYLQMNILKPEDTAVYYCAAYYAGFGYNYWGQGTQVTVSS", "polyreactivity (PSR sort gate)": "low polyreactivity"},
      {"sequence": "QVQLVESGGGLVQAGGSLRLSCAASGGIFQGYAMGWYRQAPGKERELVAGITSRSGSTYYADSVKGRFTISRDNAKNTVYLQMNSLKPEDTAVYYCAVRVYRSYGYWGQGTQVTVSS", "polyreactivity (PSR sort gate)": "high polyreactivity"},
      {"sequence": "QVQLVESGGGLVQAGGSLRLSCAASGGIFRGNAMGWYRQAPGKERELVAAISSSGGSTYYADSVKGRFTISRDNAKNTVYLQMNSLKPEDTAVYYCAATRYSTRFGARGYWGQGTQVTVSS", "polyreactivity (PSR sort gate)": "high polyreactivity"},
      {"sequence": "QVQLVESGGGLVQAGGSLRLSCAASGGIFRINAMGWYRQAPGKERELVAAITSSVGSTYYADSVKGRFTISRDNAKNTVYLQMNSLKPEDTAVYYCAAVITRDAIVFSTEYDYWGQGTQVTVSS", "polyreactivity (PSR sort gate)": "low polyreactivity"},
      {"sequence": "QVQLVESGGGLVQAGGSLRLSCAASGGIFRPYAMGWYRQSPGKEREMVAAITYNGGSTYYADSVKGRFTISRDNAKNTVYLQMNSLKPEDTGVYYCAARARSSRTYHDDYWGQGTQVTVSS", "polyreactivity (PSR sort gate)": "high polyreactivity"},
      {"sequence": "QVQLVESGGGLVQAGGSLRLSCAASGGIFRYYAMGWYRQAPGKERELVAAISKSGGRTYYADSVKGRFTISRDNAKNTVYLQMNSLKPEDTAVYYCNAEYTWHSGYDYWGQGTQVTVSS", "polyreactivity (PSR sort gate)": "low polyreactivity"},
      {"sequence": "QVQLVESGGGLVQAGGSLRLSCAASGGIFSFKAMGWYIQAPGKERELVAAITTRGGSTYYADSVKGRFTISRDNAKNTVYLQMNSLKPEDTAVYYCAAEGYEEFNWGQGTQVTVSS", "polyreactivity (PSR sort gate)": "low polyreactivity"},
      {"sequence": "QVQLVESGGGLVQAGGSLRLSCAASGGIFSGYAMGWYRQAPGKERELVAAISRRGGSTYYADSVKGRFTISRDNAKNTVYLQMNSLKPEDTAVYYFAKAYPYTCGQVTMYYWGQGTQVTVSS", "polyreactivity (PSR sort gate)": "high polyreactivity"},
      {"sequence": "QVQLVESGGGLVQAGGSLRLSCAASGGIFSLYAMGWYRQAPGKEREFVAAISFTGASTYYADSVKGRFTISRDNAKNTVYLQMNSLKPEDTAVYYCAAYWDAEGRRYTRLDYWGQGTQVTLSS", "polyreactivity (PSR sort gate)": "low polyreactivity"},
      {"sequence": "QVQLVESGGGLVQAGGSLRLSCAASGGIFSSYVMGWYRQAPGKERELVAAIRWSGSSTYYADSVKGRFTISRDNAKNTVYLQMNSLKPEDTAVYYCAAYRDYGSYGSWGQGTQVTVSS", "polyreactivity (PSR sort gate)": "high polyreactivity"},
      {"sequence": "QVQLVESGGGLVQAGGSLRLSCAASGGIFSYNAMGSYRQAPGKERELVATISYSGGSTFYADSVKGRFTISRDNAKNTVYLQMNSLKPEDTAVYYCARPSYTSGYQSYDYWGQGTQVTVSS", "polyreactivity (PSR sort gate)": "low polyreactivity"},
      {"sequence": "QVQLVESGGGLVQAGGSLRLSCAASGGIFSYNAMGWSRQAPGKEREWVASITGSGGSTYYADSVKGRFTISRGNAKNTVYLQMNSLKPEDTAVYYCAAQGYWTYWPYLLRLYDYWGQGTQVTVSS", "polyreactivity (PSR sort gate)": "low polyreactivity"},
      {"sequence": "QVQLVESGGGLVQAGGSLRLSCAASGGIFSYYAMGWYRQAPGKEREFVAAIDWGGGSTYYADSVKGRFTISRDNAKKTVYLQMNSLKPEDTAVYYCAAEIYPIGWDDYDYWGQGTQVTVSS", "polyreactivity (PSR sort gate)": "low polyreactivity"},
      {"sequence": "QVQLVESGGGLVQAGGSLRLSCAASGGIFTRNDMGWYRQAPGKERELVAGISWRGGSTYYADSVKGRFTISRDNAKNTVYLQMNSLKPEDTAVYYCAADLDSDFDYWGQGTQVTVSS", "polyreactivity (PSR sort gate)": "low polyreactivity"},
      {"sequence": "QVQLVESGGGLVQAGGSLRLSCAASGGIFVFYGLGWYRQAPGKERELVAAINGNGDDTYYADSVKGRFTISRDNAKNTVYLQMNSLKPEDTAVYYCAAESRGDGDGYWGQGTQVTVSS", "polyreactivity (PSR sort gate)": "low polyreactivity"},
      {"sequence": "QVQLVESGGGLVQAGGSLRLSCAASGGIFWFNAMGWYRQAPGKEREFVAAITWRGGSTYYADSVKGRFTISRDNAKNTVYLQMNSLKPEDTAVYYCAATYWWHRSSGWDRVEYWGQGTQVTVSS", "polyreactivity (PSR sort gate)": "high polyreactivity"},
      {"sequence": "QVQLVESGGGLVQAGGSLRLSCAASGGIFWHYTMGWYRQAPGKERELVAAITRRGGSTYYADSVKGRFTISRDNAKNSVYLQMTSLKREDTAVYYCAADFLPQSYNWYDYWGQGTQVTVSS", "polyreactivity (PSR sort gate)": "low polyreactivity"}
    ]}
  ]
}
